From paper PMC12024694, “RNA Binding to CCRRM of PABPN1 Induces Conformation Change”

Key:
[1] = target: T1, PABPN1 CCRRM fragment (coiled coil + RRM) (UniProt Q86U42 114-254); test: BLI; kon 3.589e-5 (so in the source), koff 1.34e-3 s-1; room temperature; EMSA and SHAPE: 10 mM Tris-HCl pH 8.0, 25 mM KCl, 10 mM NaCl, 1 mM MgCl2, 10% glycerol, 0.5 mM DTT, 25 C, 20 min (1M7 step at 35 C); BLI: room temperature, 0.5; conditions: protein: recombinant; tags: Trx and His (Ni-NTA) fusion, pET-MG vector; label: 5' biotin
T1 sequence: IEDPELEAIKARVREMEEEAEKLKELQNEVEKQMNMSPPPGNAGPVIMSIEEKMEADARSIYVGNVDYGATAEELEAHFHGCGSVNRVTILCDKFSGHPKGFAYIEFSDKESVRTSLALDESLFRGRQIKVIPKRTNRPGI

[2] = target: T1, PABPN1 CCRRM fragment (coiled coil + …); test: BLI; kon 4.1e-5 (so in the source), koff 1.71e-3 s-1; text ranks A12 lowest affinity, inconsistent with values; EMSA and SHAPE: 10 mM Tris-HCl pH 8.0, 25 mM KCl, 10 mM NaCl, 1 mM MgCl2, 10% glycerol, 0.5 mM DTT, 25 C, 20 min (1M7 step at 35 C); BLI: room temperature, 0.5; conditions: protein: recombinant; tags: Trx and His (Ni-NTA) fusion, pET-MG vector; label: 5' biotin
[3] = target: T1, PABPN1 CCRRM fragment (coiled coil + …); test: BLI; kon 4.24e-5 (so in the source), koff 2.031e-3 s-1; text ranks A18 intermediate, inconsistent with values; EMSA and SHAPE: 10 mM Tris-HCl pH 8.0, 25 mM KCl, 10 mM NaCl, 1 mM MgCl2, 10% glycerol, 0.5 mM DTT, 25 C, 20 min (1M7 step at 35 C); BLI: room temperature, 0.5; conditions: protein: recombinant; tags: Trx and His (Ni-NTA) fusion, pET-MG vector; label: 5' biotin
[4] = target: T1, PABPN1 CCRRM fragment (coiled coil + …); test: EMSA; 50 uM RNA; protein:RNA ratio 0 to 5; EMSA and SHAPE: 10 mM Tris-HCl pH 8.0, 25 mM KCl, 10 mM NaCl, 1 mM MgCl2, 10% glycerol, 0.5 mM DTT, 25 C, 20 min (1M7 step at 35 C); BLI: room temperature, 0.5; conditions: protein: recombinant; tags: Trx and His (Ni-NTA) fusion, pET-MG vector
[5] = target: T1, PABPN1 CCRRM fragment (coiled coil + …); test: EMSA; 40 uM RNA; protein:RNA ratio 0 to 10; EMSA and SHAPE: 10 mM Tris-HCl pH 8.0, 25 mM KCl, 10 mM NaCl, 1 mM MgCl2, 10% glycerol, 0.5 mM DTT, 25 C, 20 min (1M7 step at 35 C); BLI: room temperature, 0.5; conditions: protein: recombinant; tags: Trx and His (Ni-NTA) fusion, pET-MG vector
[6] = target: T1, PABPN1 CCRRM fragment (coiled coil + …); test: SHAPE footprinting (1M7); A-rich protected, CU-rich partly protected; CA-rich and GU-rich stable, AU-rich more reactive; text elsewhere calls GU-rich moderate affinity; EMSA and SHAPE: 10 mM Tris-HCl pH 8.0, 25 mM KCl, 10 mM NaCl, 1 mM MgCl2, 10% glycerol, 0.5 mM DTT, 25 C, 20 min (1M7 step at 35 C); BLI: room temperature, 0.5; conditions: protein: recombinant; tags: Trx and His (Ni-NTA) fusion, pET-MG vector

Question: AAAAAA (ssRNA) [A6] was tested. Which Kd [1] did it give?
Answer: 3.38 nM

Question: For AAAAAAAAAAAA (ssRNA) [A12], which Kd [2] is on record?
Answer: 4.17 nM

Question: For AAAAAAAAAAAAAAAAAA (ssRNA) [A18], which Kd [3] is on record?
Answer: 4.79 nM

B1: A-rich RNA (ssRNA)
RNA: UAAUACGACUCACUAUAGGGUGGUCAGUCGAGUGGAAAAAAAAAAAAAAAAAAGGGCGGCAUGGUCCCAGCCUCCU
Question: Does B1 bind [4]?
Answer: binds

B2: U-rich RNA (ssRNA)
RNA: UAAUACGACUCACUAUAGGGUGGUCAGUCGAGUGGUUUUUUUUUUUUUUUUUUGGGCGGCAUGGUCCCAGCCUCCU
Question: Does B2 bind [5]?
Answer: no binding

B3: RE_A-rich RNA (structured_RNA)
RNA: CCUUCGGGCCAAAUUUAUUUAUUUAUUUAUUUAGCUGACGAUAAAAAAAAAAAAAAAAAACCACACACACAGGAAUCGACUCUGUUUGUUUGUGUUUGUUUGUACUGAAUUGGCACUUUUCCCCUUUUCCCUUUCUGGACUGGCAUCGAUCCGGUUCGCCGGAUCCAAAUCGGGCUUCGGUCCGGUUC
Question: Does B3 bind [6]?
Answer: binds
